B1: DnaJ homolog subfamily C member 5 (Homo sapiens), Q9H3Z4 (parent)
chain: MADQRQRSLSTSGESLYHVLGLDKNATSDDIKKSYRKLALKYHPDKNPDNPEAADKFKEINNAHAILTDATKRNIYDKYGSLGLYVAEQFGEENVNTYFVLSSWWAKALFVFCGLLTCCYCCCCLCCCFNCCCGKCKPKAPEGEETEFYVSPEDLEAQLQSDEREATDTPIVIQPASATETTQLTADSHPSYHTDGFN
partner: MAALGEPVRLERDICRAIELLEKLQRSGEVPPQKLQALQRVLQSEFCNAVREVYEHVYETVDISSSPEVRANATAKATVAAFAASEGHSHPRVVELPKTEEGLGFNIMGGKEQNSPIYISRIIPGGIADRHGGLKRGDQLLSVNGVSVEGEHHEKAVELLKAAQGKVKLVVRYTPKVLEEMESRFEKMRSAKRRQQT
B2: DnaJ homolog subfamily C member 5 (Homo sapiens), Q9H3Z4 (parent)
chain: B1 chain
partner: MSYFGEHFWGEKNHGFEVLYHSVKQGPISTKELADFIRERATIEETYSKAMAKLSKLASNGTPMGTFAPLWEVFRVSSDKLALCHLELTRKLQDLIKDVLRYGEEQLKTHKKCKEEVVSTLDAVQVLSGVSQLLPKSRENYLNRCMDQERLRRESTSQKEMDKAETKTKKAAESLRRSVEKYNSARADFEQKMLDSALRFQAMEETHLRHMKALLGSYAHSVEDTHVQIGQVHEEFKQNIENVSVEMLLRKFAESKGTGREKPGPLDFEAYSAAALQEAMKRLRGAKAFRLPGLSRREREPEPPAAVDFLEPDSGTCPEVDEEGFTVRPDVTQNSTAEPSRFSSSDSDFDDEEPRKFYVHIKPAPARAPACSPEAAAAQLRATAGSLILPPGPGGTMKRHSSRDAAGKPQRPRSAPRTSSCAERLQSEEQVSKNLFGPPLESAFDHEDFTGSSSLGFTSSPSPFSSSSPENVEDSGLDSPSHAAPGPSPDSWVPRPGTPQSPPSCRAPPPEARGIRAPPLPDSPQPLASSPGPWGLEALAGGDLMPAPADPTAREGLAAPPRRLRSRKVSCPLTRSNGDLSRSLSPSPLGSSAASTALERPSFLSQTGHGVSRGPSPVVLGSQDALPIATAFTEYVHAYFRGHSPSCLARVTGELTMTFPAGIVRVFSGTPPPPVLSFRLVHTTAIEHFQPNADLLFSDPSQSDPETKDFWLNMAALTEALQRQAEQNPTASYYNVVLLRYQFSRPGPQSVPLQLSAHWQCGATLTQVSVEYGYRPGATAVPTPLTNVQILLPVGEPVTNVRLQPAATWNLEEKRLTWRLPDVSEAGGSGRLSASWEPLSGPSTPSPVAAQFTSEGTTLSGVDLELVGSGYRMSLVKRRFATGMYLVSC
B3: DnaJ homolog subfamily C member 5 (Homo sapiens), Q9H3Z4 (parent)
chain: B1 chain
partner: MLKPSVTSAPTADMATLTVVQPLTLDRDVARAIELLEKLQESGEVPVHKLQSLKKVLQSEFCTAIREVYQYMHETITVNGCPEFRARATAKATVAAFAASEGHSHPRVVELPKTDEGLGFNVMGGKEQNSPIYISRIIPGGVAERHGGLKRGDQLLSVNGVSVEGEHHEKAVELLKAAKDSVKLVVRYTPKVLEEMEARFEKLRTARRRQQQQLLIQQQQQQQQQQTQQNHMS
B4: DnaJ homolog subfamily C member 5 (Homo sapiens), Q9H3Z4 (parent)
chain: B1 chain
partner: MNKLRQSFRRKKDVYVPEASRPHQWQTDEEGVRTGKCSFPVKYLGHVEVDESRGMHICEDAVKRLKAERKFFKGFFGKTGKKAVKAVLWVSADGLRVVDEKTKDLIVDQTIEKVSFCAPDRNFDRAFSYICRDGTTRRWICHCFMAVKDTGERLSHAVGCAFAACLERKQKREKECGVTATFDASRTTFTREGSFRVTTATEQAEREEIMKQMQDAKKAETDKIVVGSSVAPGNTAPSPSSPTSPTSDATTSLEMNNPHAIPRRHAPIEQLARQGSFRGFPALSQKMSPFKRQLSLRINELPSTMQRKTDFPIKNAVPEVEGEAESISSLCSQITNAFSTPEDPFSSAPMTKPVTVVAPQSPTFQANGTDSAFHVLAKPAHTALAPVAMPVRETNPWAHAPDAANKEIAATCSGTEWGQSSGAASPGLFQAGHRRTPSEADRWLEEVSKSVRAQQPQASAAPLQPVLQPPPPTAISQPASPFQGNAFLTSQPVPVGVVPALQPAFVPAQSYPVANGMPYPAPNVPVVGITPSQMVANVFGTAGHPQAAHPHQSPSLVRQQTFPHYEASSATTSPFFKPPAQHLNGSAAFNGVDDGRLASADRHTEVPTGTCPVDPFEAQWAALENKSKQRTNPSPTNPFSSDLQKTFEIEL
B5: DnaJ homolog subfamily C member 5 (Homo sapiens), Q9H3Z4 (parent)
chain: B1 chain
partner: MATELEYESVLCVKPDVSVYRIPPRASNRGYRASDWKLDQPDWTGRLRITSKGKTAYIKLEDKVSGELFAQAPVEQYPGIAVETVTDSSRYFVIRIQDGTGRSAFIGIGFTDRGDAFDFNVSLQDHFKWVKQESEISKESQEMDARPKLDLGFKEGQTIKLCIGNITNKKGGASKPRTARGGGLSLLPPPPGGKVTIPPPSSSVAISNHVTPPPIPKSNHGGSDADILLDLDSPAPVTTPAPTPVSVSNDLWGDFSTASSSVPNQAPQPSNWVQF
B6: DnaJ homolog subfamily C member 5 (Homo sapiens), Q9H3Z4 (parent)
chain: B1 chain
partner: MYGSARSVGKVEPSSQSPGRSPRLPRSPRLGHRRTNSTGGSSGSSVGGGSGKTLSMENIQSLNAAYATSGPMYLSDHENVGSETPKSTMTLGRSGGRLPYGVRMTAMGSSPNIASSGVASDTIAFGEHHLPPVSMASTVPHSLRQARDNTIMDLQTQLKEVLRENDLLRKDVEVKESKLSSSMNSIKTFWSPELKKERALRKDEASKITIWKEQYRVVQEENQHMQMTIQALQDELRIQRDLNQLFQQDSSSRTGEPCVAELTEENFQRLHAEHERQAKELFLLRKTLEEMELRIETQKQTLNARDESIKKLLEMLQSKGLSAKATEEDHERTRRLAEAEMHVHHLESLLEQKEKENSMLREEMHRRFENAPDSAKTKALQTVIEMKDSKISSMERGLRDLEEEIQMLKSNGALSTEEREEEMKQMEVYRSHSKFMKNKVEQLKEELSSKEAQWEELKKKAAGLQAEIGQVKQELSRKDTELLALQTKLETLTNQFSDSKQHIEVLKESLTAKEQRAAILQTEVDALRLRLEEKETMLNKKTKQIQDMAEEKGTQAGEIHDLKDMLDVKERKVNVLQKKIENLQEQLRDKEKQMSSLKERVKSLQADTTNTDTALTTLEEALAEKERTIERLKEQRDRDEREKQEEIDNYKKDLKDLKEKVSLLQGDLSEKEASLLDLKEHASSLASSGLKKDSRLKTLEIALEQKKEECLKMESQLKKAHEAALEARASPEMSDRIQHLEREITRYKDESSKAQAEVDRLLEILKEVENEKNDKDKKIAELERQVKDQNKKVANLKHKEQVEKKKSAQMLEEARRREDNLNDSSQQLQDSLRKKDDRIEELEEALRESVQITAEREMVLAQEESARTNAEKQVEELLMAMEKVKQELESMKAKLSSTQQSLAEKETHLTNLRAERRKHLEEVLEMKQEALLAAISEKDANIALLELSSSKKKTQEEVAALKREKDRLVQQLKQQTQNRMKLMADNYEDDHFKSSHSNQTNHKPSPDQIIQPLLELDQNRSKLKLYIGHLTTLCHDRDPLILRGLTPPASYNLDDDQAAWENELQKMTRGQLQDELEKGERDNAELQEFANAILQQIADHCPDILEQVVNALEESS
B7: DnaJ homolog subfamily C member 5 (Homo sapiens), Q9H3Z4 (parent)
chain: B1 chain
partner: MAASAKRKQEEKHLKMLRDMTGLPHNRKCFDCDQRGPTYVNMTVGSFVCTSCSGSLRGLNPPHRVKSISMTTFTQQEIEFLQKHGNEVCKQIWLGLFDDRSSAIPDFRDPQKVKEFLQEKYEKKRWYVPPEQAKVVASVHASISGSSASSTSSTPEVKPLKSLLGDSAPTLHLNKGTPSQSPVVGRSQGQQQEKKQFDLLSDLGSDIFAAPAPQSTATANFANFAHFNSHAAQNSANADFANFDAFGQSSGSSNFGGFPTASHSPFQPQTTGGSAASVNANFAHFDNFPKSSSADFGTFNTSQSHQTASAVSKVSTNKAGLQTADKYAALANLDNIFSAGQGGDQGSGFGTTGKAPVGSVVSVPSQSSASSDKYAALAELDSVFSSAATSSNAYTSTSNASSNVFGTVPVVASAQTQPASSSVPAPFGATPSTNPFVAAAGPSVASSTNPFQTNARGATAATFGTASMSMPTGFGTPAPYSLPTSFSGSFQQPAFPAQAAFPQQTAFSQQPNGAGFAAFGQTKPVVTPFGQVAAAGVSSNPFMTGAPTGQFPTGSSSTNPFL

Variants of: B1
Conditions: with lin7c_human LIN7C

Row | effect of a mutation on the interaction | Variant
1 | with no effect | MADQRQRSLSTSGESLYHVLGLDKNATSDDIKKSYRKLALKYHPDKNPDNPEAADKFKEINNAHAILTDATKRNIYDKYGSLGLYVAEQFGEENVNTYFVLSSWWAKALFVFCGRLTCCYCCCCLCCCFNCCCGKCKPKAPEGEETEFYVSPEDLEAQLQSDEREATDTPIVIQPASATETTQLTADSHPSYHTDGFN

Variants of: B2
Conditions: with fcho1_human FCHO1, O14526

Row | effect of a mutation on the interaction | Variant
2 | decreasing interaction strength | MADQRQRSLSTSGESLYHVLGLDKNATSDDIKKSYRKLALKYHPDKNPDNPEAADKFKEINNAHAILTDATKRNIYDKYGSLGLYVAEQFGEENVNTYFVLSSWWAKALFVFCGRLTCCYCCCCLCCCFNCCCGKCKPKAPEGEETEFYVSPEDLEAQLQSDEREATDTPIVIQPASATETTQLTADSHPSYHTDGFN

Variants of: B3
Conditions: with lin7a_human LIN7A

Row | effect of a mutation on the interaction | Variant
3 | with no effect | MADQRQRSLSTSGESLYHVLGLDKNATSDDIKKSYRKLALKYHPDKNPDNPEAADKFKEINNAHAILTDATKRNIYDKYGSLGLYVAEQFGEENVNTYFVLSSWWAKALFVFCGRLTCCYCCCCLCCCFNCCCGKCKPKAPEGEETEFYVSPEDLEAQLQSDEREATDTPIVIQPASATETTQLTADSHPSYHTDGFN

Variants of: B4
Conditions: with numb_human NUMB

Row | effect of a mutation on the interaction | Variant
4 | with no effect | MADQRQRSLSTSGESLYHVLGLDKNATSDDIKKSYRKLALKYHPDKNPDNPEAADKFKEINNAHAILTDATKRNIYDKYGSLGLYVAEQFGEENVNTYFVLSSWWAKALFVFCGRLTCCYCCCCLCCCFNCCCGKCKPKAPEGEETEFYVSPEDLEAQLQSDEREATDTPIVIQPASATETTQLTADSHPSYHTDGFN

Variants of: B5
Conditions: with necp1_human NECAP1, Q8NC96

Row | effect of a mutation on the interaction | Variant
5 | with no effect | MADQRQRSLSTSGESLYHVLGLDKNATSDDIKKSYRKLALKYHPDKNPDNPEAADKFKEINNAHAILTDATKRNIYDKYGSLGLYVAEQFGEENVNTYFVLSSWWAKALFVFCGRLTCCYCCCCLCCCFNCCCGKCKPKAPEGEETEFYVSPEDLEAQLQSDEREATDTPIVIQPASATETTQLTADSHPSYHTDGFN

Variants of: B6
Conditions: with rb6i2_human ERC1, Q8IUD2

Row | effect of a mutation on the interaction | Variant
6 | with no effect | MADQRQRSLSTSGESLYHVLGLDKNATSDDIKKSYRKLALKYHPDKNPDNPEAADKFKEINNAHAILTDATKRNIYDKYGSLGLYVAEQFGEENVNTYFVLSSWWAKALFVFCGRLTCCYCCCCLCCCFNCCCGKCKPKAPEGEETEFYVSPEDLEAQLQSDEREATDTPIVIQPASATETTQLTADSHPSYHTDGFN

Variants of: B7
Conditions: with agfg1_human AGFG1, P52594

Row | effect of a mutation on the interaction | Variant
7 | with no effect | MADQRQRSLSTSGESLYHVLGLDKNATSDDIKKSYRKLALKYHPDKNPDNPEAADKFKEINNAHAILTDATKRNIYDKYGSLGLYVAEQFGEENVNTYFVLSSWWAKALFVFCGRLTCCYCCCCLCCCFNCCCGKCKPKAPEGEETEFYVSPEDLEAQLQSDEREATDTPIVIQPASATETTQLTADSHPSYHTDGFN
